In patent US20250213684A1, “COMBINATION THERAPIES COMPRISING ANTIBODY MOLECULES TO TIM-3” (Novartis AG, priority 2015, published 2025):

Columns and labels:
[1] = biological target: T1, human TIM-3 (Homo sapiens, UniProt Q8TDQ0); experiment: Flow cytometry binding to cells transfected with human TIM-3; conditions: overall statement on the binding experiments of Example 1
T1 construct: expressed in transfected cells
Protocol: (§1) Panels of anti-TIM-3 antibodies were assayed for binding to TIM-3 expressing cells.

[2] = tested on: cynomolgus TIM-3; experiment: Flow cytometry binding to cells transfected with cynoTIM-3; parameters: species or system cynomolgus monkey; conditions: overall statement on the binding experiments of Example 1
Protocol: as §1

[3] = biological target: T2, human TIM-4 (Homo sapiens, UniProt Q96H15); experiment: Flow cytometry binding to human TIM-4 expressed in CHO cells
T2 construct: expressed in transfected cells; host or cells: CHO cells
T2 sequence (Q96H15 25-378): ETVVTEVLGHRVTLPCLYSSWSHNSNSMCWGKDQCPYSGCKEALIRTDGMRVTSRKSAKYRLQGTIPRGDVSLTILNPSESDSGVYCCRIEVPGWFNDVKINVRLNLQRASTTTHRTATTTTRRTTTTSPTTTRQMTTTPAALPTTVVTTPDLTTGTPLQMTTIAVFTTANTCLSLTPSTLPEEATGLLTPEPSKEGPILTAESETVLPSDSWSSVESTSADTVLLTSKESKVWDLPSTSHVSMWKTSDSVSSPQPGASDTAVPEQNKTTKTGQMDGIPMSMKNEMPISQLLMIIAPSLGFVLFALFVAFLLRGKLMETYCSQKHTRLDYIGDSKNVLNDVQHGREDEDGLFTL
Description: (§2) Human TIM-3 has about 23% sequence identity with human TIM-4. Murine TIM-3 has about 66% sequence identity with human TIM-3 and 64% sequence identity with cynomolgus TIM-3.

[4] = biological target: T3, murine TIM-3 (Mus musculus, UniProt Q8VIM0); experiment: Flow cytometry binding to murine TIM-3 expressed in cells
T3 construct: expressed in transfected cells
T3 sequence (Q8VIM0 20-281): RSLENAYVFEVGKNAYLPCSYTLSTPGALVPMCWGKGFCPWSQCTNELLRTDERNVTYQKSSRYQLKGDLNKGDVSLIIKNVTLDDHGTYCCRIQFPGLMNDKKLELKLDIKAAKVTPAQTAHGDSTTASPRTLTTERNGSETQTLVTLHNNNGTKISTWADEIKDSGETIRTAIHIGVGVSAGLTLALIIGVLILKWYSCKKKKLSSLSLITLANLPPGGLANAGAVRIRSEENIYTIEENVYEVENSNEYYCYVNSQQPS
Description: as §2

[5] = tested on: PD-L1 IgV/TIM-3 mucin construct; experiment: Domain analysis: binding to PD-L1 IgV/TIM-3 mucin chimeric construct; conditions: recombinant construct with TIM-3 IgV domain replaced
Protocol: TIM-3 has an extracellular IgV domain and a mucin domain. […] 3A. […] The dissociation constant (KD) values were calculated for each tested antibody for the recombinant construct are shown in Table 8.

[6] = biological target: T4, TIM-3 binding to PtdSer (phosphatidylserine) (Homo sapiens, UniProt Q8TDQ0); experiment: Blocking of TIM-3-Ig binding to PtdSer on anti-CD95-treated WR19L(Fas) cells
T4 construct: huTIM-3 extracellular domain fused to an Ig Fc region
Protocol: TIM-3 binds to PtdSer (phosphatidylserine), a lipid that is typically present on the surface of apoptotic cells and not normal cells. Anti-CD95-treated WR19L(Fas) cells were cultured under conditions that promote PtdSer accumulation on the cell surface (flipping of PtdSer from the inner membrane to external exposure upon induction of apoptosis). TIM-3-Ig (huTIM-3 extracellular domain fused to an Ig Fc region) was added to the cells, and binding of TIM-3-Ig to the cells was assayed in the presence of various antibodies.

[7] = tested on: IL-12 stimulated CD4+ cells; experiment: IFN-gamma secretion and proliferation of IL-12 stimulated CD4+ cells; assay type: cell-based; conditions: IL-12 stimulated CD4+ T cells
Protocol: The ability of four antibodies to enhance IFN-gamma secretion and proliferation of IL-12 stimulated CD4+ cells was assayed. This assay used the observation that a high dose of IL-12 induces expression of TIM-3 and yields an exhausted phenotype in T cells (see Yang et al., J. Clin. Invest. 122:4 p 1271 2012). […] After PMA/ionomycin restimulation and fixation and permeabilization of cells, the resulting IFN-gamma levels were measured by flow cytometry (y axis) and proliferation was measured by CFSE fluorescence (x axis). FIG. 5B quantifies IFN-gamma expression in cells exposed to these four antibodies.

[8] = tested on: K562 cells; experiment: In vitro cytotoxic activity of purified NK cells against K562 cells; assay type: cell-based; conditions: antibody 10 μg/mL, 4-hour incubation with target cells
Protocol: 5.1 TIM-3 blockade enhances in vitro cytotoxic activity of purified NK cells TIM-3 is highly expressed endogenously on NK (natural killer) cells; its expression is further induced on activated NK cells. TIM-3 may act to restrain NK cell function, as do other inhibitory receptors. See Ndhlovu et al., Blood 119:3734, 2012, and Silva et al., Cancer Immunol Res 2:410, 2014.
In this assay. NK cells were purified from whole blood by negative bead selection and then incubated with antibody (10 μg/mL) at 37° C. After 1 hour, target K562 cells were added. After a 4-hour incubation at 37° C., the percent of K562 cell killing was measured.

[9] = tested on: naïve T cell / dendritic cell co-culture; experiment: Proliferation in autologous T-DC co-cultures (CFSE); assay type: cell-based; conditions: 0.01-25 μg/mL, four days, anti-CD3/CD28; vs no antibody and mouse IgG1 control
Description: TIM-3 can be expressed on dendritic cells (DCs) and T cells. Naïve T cells and dendritic cells were isolated from donor samples. Naïve T cells and conventional DCs were cocultured for four days in the presence of anti-CD3/CD28. […] Cell proliferation was detected by a CFSE proliferation assay, which relies on dilution of CFSE staining to detect proliferating cells.

- affinity for human TIM-3 [1]: sub-nanomolar
- binding to human TIM-4 [3]: does not bind
- cross-reactivity with murine TIM-3 [4]: not cross-reactive
- binding to the chimeric protein of FIG. 3A [5]: do not substantially bind
- inhibition of binding of TIM-3 to PtdSer [6]: inhibit the binding of TIM-3 to PtdSer
B1: ABTIM3: murine anti-TIM-3 antibody; VH SEQ ID NO: 1, VL SEQ ID NO: 2 (antibody, V domains shown)
VH: QVQLQQPGAELVKPGASVKMSCKASGYTFTSYNMHWIKQTPGQGLEWIGDIYPGNGDTSYNQKFKGKATLTADKSSSTVYMQLSSLTSEDSAVYYCARVGGAFPMDYWGQGTSVTVSS
VL: DIVLTQSPASLAVSLGQRATISCRASESVEYYGTSLMQWYQQKPGQPPKLLIYAASNVESGVPARFSGSGSGTDFSLNIHPVEEDDIAIYFCQQSRKDPSTFGGGTKLEIK
- affinity for cynomolgus TIM-3 [2]: sub-nanomolar
- proliferation ([7]; CFSE): enhances
- IFN-gamma secretion ([7]; flow cytometry): enhances
- percent of K562 cell killing by NK cells [8]: elevated levels of K523 cell killing relative to anti-TIM-3 #2 or the isotype control
- proliferating cells (CFSE-diluted cells) [9]: increase in proliferating cells
